Consider nine molecules from article PMC5902045, “Degenerate Pax2 and Senseless binding motifs improve detection of low-affinity sites required for enhancer specificity”.

Residue numbers refer to the chain shown, from its start.

One data set concerns the target Pax2 (UniProt Q8IM96 175-301). Kind of data set: EMSA; Native PAGE EMSA, probe 0.36 uM, LI-COR imaging; protein amounts in ng; buffer, salt, pH and temperature not given (cited to refs 43, 64). The settings on record: protein: recombinant; tags: His.
The target in the next data set is Senseless (Sens) (UniProt Q9N658 413-520). Described as above. The settings on record: protein: recombinant; tags: His.
Sequence of Senseless (Sens) (Q9N658 413-520): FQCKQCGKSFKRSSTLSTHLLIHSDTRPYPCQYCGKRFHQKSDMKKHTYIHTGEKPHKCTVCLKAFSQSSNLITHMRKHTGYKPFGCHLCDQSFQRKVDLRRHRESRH

Sequence of Pax2 (Q8IM96 entry or part of it): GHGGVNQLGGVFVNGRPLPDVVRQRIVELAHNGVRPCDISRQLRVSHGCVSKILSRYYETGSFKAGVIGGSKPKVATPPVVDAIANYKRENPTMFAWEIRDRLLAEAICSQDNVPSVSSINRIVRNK

B1: RhoA-WT (dsDNA)
DNA 1: TCGTTGCAGTTCATTGATTGACATTTTTATTATGCATATTCGCTGGT
DNA 2: ACCAGCGAATATGCATAATAAAAATGTCAATCAATGAACTGCAACGA
For B1, the binding result in the data set with Pax2 and in the data set with Senseless (Sens) was “binds” in each case.

B2: RhoA-PS (strong Pax2 site) (dsDNA)
DNA 1: B1 DNA 1 with T5C, G6A, A8G
DNA 2: B1 DNA 2 with T40C, C42T, A43G
For B2, the binding result with Pax2 and with Senseless (Sens) was “binds” throughout.

B3: RhoA-SM (Sens site mutant) (dsDNA)
DNA 1: B1 DNA 1 with C12G, A13G
DNA 2: B1 DNA 2 with T35C, G36C
In the case of B3, the binding result in the data set with Senseless (Sens) was “no binding”.

B4: RhoA-PSSS (strong Pax2 and Sens sites) (dsDNA)
DNA 1: B1 DNA 1 with T5C, G6A, A8G, T11G, T14C
DNA 2: B1 DNA 2 with A34G, A37C, T40C, C42T, A43G
Turning to B4, the binding result with Pax2 and with Senseless (Sens) was “binds” throughout.

B5: RhoA-PM (Pax2 site mutant) (dsDNA)
DNA 1: B1 DNA 1 with T4G, T5G, G6T
DNA 2: B1 DNA 2 with C42A, A43C, A44C
With B5, the binding result with Senseless (Sens) was “binds”.

B6: RhoA-SS (strong Sens site) (dsDNA)
DNA 1: B1 DNA 1 with T11G, T14C
DNA 2: B1 DNA 2 with A34G, A37C
As for B6, the binding result in the data set with Senseless (Sens) is reported as “binds”.

B7: RhoA-SM/SM (dsDNA)
DNA 1: TCGTTGCAGTTGGTTGATTGACATTTTTATTATGCATGGTTGATTGA
DNA 2: TCAATCAACCATGCATAATAAAAATGTCAATCAACCAACTGCAACGA
B7: in the data set with Senseless (Sens), the binding result was “no binding”.

B8: RhoA-SM/SS (dsDNA)
DNA 1: B7 DNA 1 with T37G, G38C, G39A, T40C
DNA 2: B7 DNA 2 with A8G, C9T, C10G, A11C
Turning to B8, the binding result with Senseless (Sens) is “binds”.

B9: RhoA-SM/SWT (dsDNA)
DNA 1: B7 DNA 1 with G38C, G39A
DNA 2: B7 DNA 2 with C9T, C10G
On to B9, for which the binding result with Senseless (Sens) is “binds”.
